Results on 28 sequences are retold here after the DeepSol protein solubility set.

A short description of this data set: soluble on expression in E. coli; label from the status in PepcDB or PDB records.
With “EQALSDQLRFVEALTDCMPPPLYVRDVNGRMLSCNRSYLQSVGLSSEEVMNRTVLELPMENFETAPEFHRSYLMAMREGRTIEAVYPVALGGRERWIDHWIQPFRDSSGTIRGVICGWLDITEHRQLIDELEEAKNLADEASRAKTTFLATMSHEIRTPMNAVIGILELALKRAETGRVDRSSIEIAYASAKSLLELIGDILDIARIESGRLSLSPKRANLRELVESVARVFEGLARQKRLSLVLEIDSSINGDVLLDAMRFKQILSNLVSNAIKFTDEGSIRIRIDGRQVEPSLLQVNLCVEDTGIGISLGDQQQLFRPFAQVNRNLQNTEGTGLGLVISRSLCEMMGGRLVMSSELGQGTRIDVELRLQVLEPIVENVRAIPLGSRQARRLQVLVVDDHAVNRQILHQQLSFLGHDVEEAENGLSALNLWHGQPFDMVITDCHMPLMSGSDLARSIRQEERENGEEPVVIIGLTADAQPEEIERCIQAGMNECLIKPIGLDVLEERLLALGFAADELPVTIDAEPVAIPTAPRLYDLDSLHALTGGEPTMLRRLLDELLTSNRKDLETLEGLVQRQETGELAELAHRIKGAARVVRGEQLVESCRRLEDACLSPNASFAWVEECAVGVKLAILALDESLVEEC”, the “soluble on expression in E. coli” value is reported as “not soluble”.

As to “EQVVARKKLEESESRFRALVNASSDVVYRMNADWTVMRELEGRDFLTPAGTAMADWVETYTYREDRALVKATAAAAIEGKRIFELEHRVLKADGTIGWTFSRAIPILDEQGNIIEWFGSAADIT”, the “soluble on expression in E. coli” value is reported as “not soluble”.

As to “EREEEPAVQGNPDESLTVEGALEYVELAPQLNLPQQEEDADFHTVAGLIMEELQTIPDVGDFADFHGWRFEVVEKEGQRIERVKITKLP”, the “soluble on expression in E. coli” value is “soluble”.

Regarding “ERIQQFYFEVKNKDKFEALCRIIDVEEPETTIIFCRTKRGVDELVESMQFRGYNVEGMHGDMSQNQRINTLKKFKENNIDFLVATDVAARGIDVHNVSHVINYDIPQDMESYVHRIGRTGRANAEGIAYSLVTPREYVMIKQIEKFTKSKIRRKEIPTIDDIFETKYNTLTDKITKNIEKDDFKKYIPFVQKLDDEFNLVDVSAALVKMIFDKEMGFDYSDDDKLKSDESVR”, the “soluble on expression in E. coli” value is given as “not soluble”.

As to “ESVKGAQTDLTSLTDESQEKTLENGSPSSKIAVLEVSGTIQDNGDSSSLLGADGYNHRTFLKNLERAKDDKTVKGIVLKVNSPGGGVYESAEIHKKLEEIKKETKKPIYVSMGSMAASGGYYISTAADKIFATPETLTGSLGVIMESVNYSKLADKLGISFETIKSGAHKDIMSPSREMTKEEKNIMQSMVDNSYEGFVDVISKGRGMPKAEVKKIADGRVYDGRQAKKLNLVDELGFYDDTITAMKKDHKDLKNASVISYEESFGLGSLFSMGANKMFKSEIDFLNMREILSQSGS”, the “soluble on expression in E. coli” value is given as “not soluble”.

For the sequence “ETGDIVETATGAGSFTTLLTAAEAAGLVDTLKGDGPFTVFAPTDAAFAALPEGTVEDLLKPENKEKLTEILTYHVVPGEVMSSDLTEGMTAETVEGGALTVTLEGGPKVNGVSISQPDVDASNGVIHVIDGVLMPGA”, the “soluble on expression in E. coli” value is given as “soluble”.

For the sequence “ETMVGSFRDTTDKWLSQRLAADIYIYPTNNSAGRMSAWLQDQPEVESVWWRWEKDVPTEHGALQVVSTGPSEGELDSLTVKLGVPNYWYQLHQTKSLMVSESMALKLDIRPGDYIDLQAPLGEGWQVVGVYYDYGNPYNQVMMSHRN”, the “soluble on expression in E. coli” value is recorded as “not soluble”.

With “EVKLQESGAGLVQPSQSLSLTCSVTGYSITSGYYWNWIRLFPGNKLEWVGYISNVGDNNYNPSLKDRLSITRDTSKNQFFLKLNSVTTEDTATYYCARSEYYSVTGYAMDYWGQGTTVTVSSAWRHP”, the “soluble on expression in E. coli” value is recorded as “soluble”.

In the case of “FEPMMQRDKIMQNLSYISDVNVLPDWMTVSQLLSYTEGVHPGFNRSKADALLRQTDIKPRAKIRALSKGMKVQLHLAIVIATNTQILILDEPTLGLDLVYRDTFYRHLLEWFHDGERVLIITSHEVSEIEHLLTDVLILKHGRPVLQTSMESISEDYFILDANDEHRAQIEAMHPLSSQKGLGTTKWLLSSQYADQAAGLGDVHGVKLADLFLALQKEAA”, the “soluble on expression in E. coli” value is listed as “not soluble”.

As to “FGKVGYATNLTYTANRNKIMKMVHDYKNPSDGSLFSITELTLQDKGGVYLREKDAIGDVYVKGILARGKDGKLIEEEGGYKVDRSQRIKIGSVNPDFSIGWRHNVTWNNITLDLLFNGRFGGIVTSSTQAFLDDYGVSKDTYKARQNGGVWVNGTQYDAEKYYTTIGGEQLMAYYAYKATNIRLQEASLSYTLPGKWFGNVINRLTVSAIGRNLWMIYNKAPFDPEMTSSTGTYNRGDVFMPPSLRSVGFSVKIEL”, the “soluble on expression in E. coli” value is listed as “not soluble”.

“FLILGTLFSSSLYADIDNAPLHALAKHQGFFFFFSSSCPHCQRFAPTLKRLSQHYGFSVVAISVDGGFLPSFPDAVMNEGQTKVFQVSVYPSLFLINPKSQVASLVTEGTIDEGELTNRLLKI”: the “soluble on expression in E. coli” value was “not soluble”.

Regarding “FLKGGFDPKMNSKEALQILNLTENTLTKKKLKEVHRKIMLANHPDKGGSPFLATKINEAKDFLEKRGISK”, the “soluble on expression in E. coli” value is given as “not soluble”.

As for “FMQEPEAIETALHRLSDHDLIVIQVLDPTEKVLPLQGNSKLVDLETGEEIRTYISDNFKERYTRKLDDHSARIKKTCMKVGAEFYTFTTDTPVFNAFYNTIRRRRR”, the “soluble on expression in E. coli” value is “not soluble”.

“FNRRFILPELREAVRSVSADIVFLQEVHGEHHSHARRVKDWPTISQYEFLADSMWSDFAYGRNAVYPDGDHGNALLSKYPIIQHENLDVSIDGTEQRGLLHCILQVPDHGQVHAVCVHLGLFESHRRQQLKLLAQLMDRLPEGAPVIVAGDFNDWRQRADALLQGTGLHEVFVQRFGAPAKSFPARWPLLRLDRIYVRNATSHRPKVLSSRPWSHLSDHAPLAVEVTL”: the “soluble on expression in E. coli” value was “not soluble”.

For the sequence “FPRVSQELKTALSTLQQTFVVSDATQPHCPIVYASSGFFTMTGYSSKEIVGRNCRFLQGPDTDKNEVAKIRDCVKNGKSYCGRLLNYKKDGTPFWNLLTVTPIKDDQGNTIKFIGMQVEVSKYTEGVNDK”, the “soluble on expression in E. coli” value is given as “soluble”.

As for “FSNNNFVYTDGTHFALNGKSLYINGFNAYWLMYIAYDPSTRIKVTNTFQQASKYKMNVARTWAFSHGGSRPLQSAPGVYNEQMFQGLDFVISEAKKYGIHLIMSLVNNWDAFGGKKQYVEWAVQRGQKLTSDDDFFTNPMVKGFYKNNVKVVLTRVNTITKVAYKDDPTILSWELINEPRCPSDLSGKTFQNWVLEMAGYLKSIDSNHLLEIGLEGFYGNDMRQYNPNSYIFGTNFISNNQVQGIDFTTIHMYPNQWLPGLTQEAQDKWASQWIQVHIDDSKMLKKPLLIAEFGKSTKTPGYTVAKRDNYFEKIYGTIFNCAKSGGPCGGGLFWQVLGQGMSSFDDGYQVVLQESPSTSRVILLQSLRLSKLS”, the “soluble on expression in E. coli” value is “soluble”.

In the case of “FTLVCITAASRHHWGTEVDIFDPDLLPRGQSLQLEPWEYEKGGYFFELSEFLAENLPHFDFALPFMNMQSNKKVGREPWHISYLPL”, the “soluble on expression in E. coli” value is reported as “not soluble”.

“GAMDPEFMSTPLPAIVPAARKATAAVIFLHGLGDTGHGWAEAFAGIRSSHIKYICPHAPVRPVTLNMNVAMPSWFDIIGLSPDSQEDESGIKQAAENIKALIDQEVKNGIPSNRIILGGFSQGGALSLYTALTTQQKLAGVTALSCWLPLRASFPQGPIGGANRDISILQCHGDCDPLVPLMFGSLTVEKLKTLVNPANVTFKTYEGMMHSSCQQEMMDVKQFIDKLLPPID”: the “soluble on expression in E. coli” value was “soluble”.

Consider “GDAFVGTWKLVSSENFDDYMKEVGVGFATRKDAGMAKPNMIISVNGDLVTIRSESTHKNTEISFKLGVEFDEITADDRKVKSIITLDGGALVQVQKWDGKSTTIKRKRDGDKLVVECVMKGVTSTRVYERA”, for which the “soluble on expression in E. coli” value was “soluble”.

“GDNDAIYYPVGDVDIERGGPALEVGEEDVLVARSFNEEDYVLDTIAQYPNDPTLGKLTFMIDLKNQQKDQNVADFNGVGKSKLTMSLGYKDGNYPSESQVPIYTSQDVTAKYAVKLRLKGELLVSGDEWMIDYVYAQLASLFQPYPPANFPEVFMCKGGMKLGTFDSFRRTCTFDITYDRSDLSFSQLYFNLFINLAGQKRENRVRLRIDKESYFELYEQSEEM”: the “soluble on expression in E. coli” value is “soluble”.

Turning to “GEADSGDGDSSEYQDGKEFGIGDLVWGKIKGFSWWPAMVVSWKATSKRQAMSGMRWVQWFGDGKFSEVSADKLVALGLFSQHFNLATFNKLVSYRKAMYHALEKARVRAGKTFPSSPGDSLEDQLKPMLEWAHGGFKPTGIEGLKPNNTQP”, the “soluble on expression in E. coli” value was “soluble”.

“GEFLISILEAIEPEVVYAGYDNSQPDTTNYLLSSLNRLAGKQMVSVVKWAKALPGFRNLHLDDQMTLIQYSWMSLMAFSLGWRSYKHTNGQMLYFAPDLIFNEERMQQSAMYDLCQGMRQISQEFVRLQVTYEEFLCMKVLLLLSTVPKDGLKSQASFDEMRMNYIKELRRAIAKKENNSSQNWQRFYQLTKLLDSMHDLVGGLLQFCFYTFVQSQALSVEFPEMLVEIISDQLPKVMAGMAKPLLFHKK”: the “soluble on expression in E. coli” value is reported as “soluble”.

For the sequence “GEMDERLLQKYRAQVFEWGGCFDKMFEALKSLIYLSEFENSEFDDEERHLLTLCIKHKISDYRTMTSQVLQEQTKQLNNDELVKICSEYVFSLRKDIKAFLQSFEDCVDRLVEKSFFSKFFKLKVKSDISRYKLEFGLCSLEDSKKIHQDAFTLLCEHPDKIEQLPLGFIQNLAYILSEKYGEKKQVFNMLNSLGKILELQIKEQENMDRKAQITVYLQGIKDYIEK”, the “soluble on expression in E. coli” value is recorded as “soluble”.

Regarding “GFGCPGNQLKCNNHCKSISCRAGYCDAATLWLRCTCTDCNGKK”, the “soluble on expression in E. coli” value is on record as “soluble”.

For the sequence “GFIDTHVHSGHRALHKLLADGGRPDLFGQPYMDVTIARDGTRIKGYPNYLSREEAAVDPGIALHAAFTVAELLRNGVTTFVELGGHVMVQEALWRECERLGVRGYLGAGYDSGRWAADDQGRLRRVPYPDGGDHLFEEAVAFIKRVQAAGNDLVNGILVPREVENCSVDILRRTVQAAQELGVPMATHAGYNVIEFYETVREHRMTPIELLHSVGMLGPRLNIGHANLISDSPRLNYSGGRDLALMGEHRVSISHCPINIVRRARVLDSWKKYREAGVNLTIGSDTYPRDMVMNMRTASYHGKVMSHDLTAASAAEVFEAATLGGARSLGRTDI”, the “soluble on expression in E. coli” value is recorded as “not soluble”.

On to “GFLSHLDIVSTFNDHLAQRHDLDPYTVTLTVREGGEVVYIGCRNSAQPLGHTFRIGMRLPAPFTATGKILLSDLGPGELRMLFSQFPQPLTSRSVAGLSQLEEELALTRARGYSIDDGQIREGMLCIGAAIRDYSGAASAGIAISLIRSEASDEKIASLGEELRTTANALSEKLGYRSQKD”, for which the “soluble on expression in E. coli” value is recorded as “soluble”.

Take “GFPSPAADYVEQRIDLNQLLIQHPSATYFVKASGDSMIDGGISDGDLLIVDSAITASHGDIVIAAVDGEFTVKKLQLRPTVQLIPMNSAYSPITISSEDTLDVFGVVIHVVKAATR”: the “soluble on expression in E. coli” value is reported as “soluble”.

Regarding “GGVDRWPEYYPETGRDIWIDSVMRQEYLWYRDMPSPAAPDYFQKPEAFLKKAVASMDNGFSKIDSLLDEPIPSYGFDYTLYKVLDNDTAYNALISYVVPGSPAEEAGLQRGHWIMMMNGDYITKKVESELLQGSTRQLQIGVYKEVVGEDGEVTGGVVPIGETTMPASRSLVDKPVHRFEIIPWNGKKVGYLMYNEFKAGPTTDSQAYNDDLRRAFRDFQTGGVNEFVLDLRYNTGGSLDCAQLLCTMLAPADKMNQLLALLRYSDKRVEANQDLTFNPELIQSGANLNLSTVYVLTTNATRGAAEMVINCLNPYMKVVLIGTKTAGEYVATKPFVHPTDRFILNLVVCNVYNAEEKSDYATGFKPTYEYNEDSYLSTYLPFGNTNETLLNAALKIMSGITDK”, the “soluble on expression in E. coli” value is recorded as “soluble”.
